US20200016266A1 (INIS BIOTECH, published 2020)
Like-named read-outs stand apart in the source and are kept apart here.

Tests used:
QPGSVAEVCITFD [1] = target: T1, QPGSVAEVCITFD; experiment: PEPperMAP conformational epitope mapping peptide array, fluorescence intensity [a.u.]
T1 construct: 13-mer of the Gal1 peptide array, axis label
T1 peptide: QPGSVAEVCITFD

LPDGYEFKFPNRL [2] = target: T2, LPDGYEFKFPNRL; experiment: as above
T2 construct: 13-mer of the Gal1 peptide array, axis label
T2 peptide: LPDGYEFKFPNRL

PGECLRV [3] = target: T3, PGECLRV; experiment: as above
T3 construct: 7-mer of the Gal1 peptide array, axis label
T3 peptide: PGECLRV

TFDQANLTVKLPD [4] = target: T4, TFDQANLTVKLPD; experiment: as above
T4 construct: 13-mer of the Gal1 peptide array, axis label
T4 peptide: TFDQANLTVKLPD

VAPDAKS [5] = target: T5, VAPDAKS; experiment: as above
T5 construct: 7-mer of the Gal1 peptide array, axis label
T5 peptide: VAPDAKS

GLVASNL [6] = target: T6, GLVASNL; experiment: as above
T6 construct: 7-mer of the Gal1 peptide array, axis label
T6 peptide: GLVASNL

NLGKDSN [7] = target: T7, NLGKDSN; experiment: as above
T7 construct: 7-mer of the Gal1 peptide array, axis label
T7 peptide: NLGKDSN

[8] = target: T8, Galectin-1 (human recombinant Gal1) (human, UniProt P09382 2-135, DyLight 594 label in the FRET assay only); experiment: SPR, BIAEvaluation 3.0, 1:1 kinetic model
T8 construct: Recombinant Gal1 made in-house; also called rhGal1; 594-Gal1
Description: By using the BIAEvaluation 3.0 software in a kinetics model of interaction adjustment 1:1, kinetic parameters, constants of dissociation (Kd) and affinity (Ka) were calculated.

QPGSVAEVCITFD [9] = target: T1, QPGSVAEVCITFD; experiment: PEPperMAP conformational epitope mapping peptide array, fluorescence intensity [a.u.]
LPDGYEFKFPNRL [10] = target: T2, LPDGYEFKFPNRL; experiment: as above
PGECLRV [11] = target: T3, PGECLRV; experiment: as above
TFDQANLTVKLPD [12] = target: T4, TFDQANLTVKLPD; experiment: as above
VAPDAKS [13] = target: T5, VAPDAKS; experiment: as above
GLVASNL [14] = target: T6, GLVASNL; experiment: as above
NLGKDSN [15] = target: T7, NLGKDSN; experiment: as above

T8 sequence (P09382 2-135 limits assumed): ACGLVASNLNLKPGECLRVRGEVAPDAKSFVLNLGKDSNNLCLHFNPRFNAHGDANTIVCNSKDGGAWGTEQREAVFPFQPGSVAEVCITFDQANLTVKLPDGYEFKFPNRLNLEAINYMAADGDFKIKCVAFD

B1: anti-Gal1 Clone 21, fully human monoclonal antibody (antibody, V domains shown)
VH: EVQLLESGGGLVQPGGSLRLSCAASGFTFSSYAMSWVRQAPGKGLEWVSEIGRVGVNTLYADSVKGRFTISRDNSKNTLYLQMNSLRAEDTAVYYCAKKATQFDYWGQGTLVTVSS
VL: DIQMTQSPSSLSASVGDRVTITCRASQSISSYLNWYQQKPGKAPKLLIYRASRLQSGVPSRFSGSGSGTDFTLTISSLQPEDFATYYCQQTIGPPDTFGQGTKVEIKR
notes: also called MAb21; Human Ab 21
What does the source list for B1?
binding result (QPGSVAEVCITFD [1]): no binding (tested: 10 µg/ml); binding result (LPDGYEFKFPNRL [2]): no binding (tested: 10 µg/ml); binding result (PGECLRV [3]): no binding (tested: 10 µg/ml); binding result (TFDQANLTVKLPD [4]): no binding (tested: 10 µg/ml); binding result (VAPDAKS [5]): no binding (tested: 10 µg/ml); binding result (GLVASNL [6]): no binding (tested: 10 µg/ml); binding result (NLGKDSN [7]): no binding (tested: 10 µg/ml); Ka [8]: 649000 M⁻¹; Kd [8]: 1540 nM

B2: anti-Gal1 Clone 42, fully human monoclonal antibody (antibody, V domains shown)
VH: EVQLLESGGGLVQPGGSLRLSCAASGFTFSSYAMSWVRQAPGKGLEWVSGISGSGDYTSYADSVKGRFTISRDNSKNTLYLQMNSLRAEDTAVYYCAKGYGAFDYWGQGTLVTVSS
VL: DIQMTQSPSSLSASVGDRVTITCRASQSISSYLNWYQQKPGKAPKLLIYGASWLQSGVPSRFSGSGSGTDFTLTISSLQPEDFATYYCQQSANYPSTFGQGTKVEIKR
notes: also called MAb42; Human Ab 42
Does B2 bind (QPGSVAEVCITFD [9])?
Result: no binding (tested: 10 µg/ml)

Does B2 bind (LPDGYEFKFPNRL [10])?
Result: no binding (tested: 10 µg/ml)

Does B2 bind (PGECLRV [11])?
Result: no binding (tested: 10 µg/ml)

Does B2 bind (TFDQANLTVKLPD [12])?
Result: no binding (tested: 10 µg/ml)

Does B2 bind (VAPDAKS [13])?
Result: no binding (tested: 10 µg/ml)

Does B2 bind (GLVASNL [14])?
Result: no binding (tested: 10 µg/ml)

Does B2 bind (NLGKDSN [15])?
Result: no binding (tested: 10 µg/ml)

And the Ka [8]?
The Ka was 7.63e+06 M⁻¹.

And the Kd [8]?
The Kd was 131 nM.
